Measurements taken from US20100278929A1.

The binders below were run against RSV (Long strain) F protein on infectious virus (respiratory syncytial virus (Long strain)) (UniProt P12568) (assay: cell-based or functional assay).
Chain of RSV (Long strain) F protein on infectious virus (respiratory syncytial virus (Long strain)) (P12568 26-574): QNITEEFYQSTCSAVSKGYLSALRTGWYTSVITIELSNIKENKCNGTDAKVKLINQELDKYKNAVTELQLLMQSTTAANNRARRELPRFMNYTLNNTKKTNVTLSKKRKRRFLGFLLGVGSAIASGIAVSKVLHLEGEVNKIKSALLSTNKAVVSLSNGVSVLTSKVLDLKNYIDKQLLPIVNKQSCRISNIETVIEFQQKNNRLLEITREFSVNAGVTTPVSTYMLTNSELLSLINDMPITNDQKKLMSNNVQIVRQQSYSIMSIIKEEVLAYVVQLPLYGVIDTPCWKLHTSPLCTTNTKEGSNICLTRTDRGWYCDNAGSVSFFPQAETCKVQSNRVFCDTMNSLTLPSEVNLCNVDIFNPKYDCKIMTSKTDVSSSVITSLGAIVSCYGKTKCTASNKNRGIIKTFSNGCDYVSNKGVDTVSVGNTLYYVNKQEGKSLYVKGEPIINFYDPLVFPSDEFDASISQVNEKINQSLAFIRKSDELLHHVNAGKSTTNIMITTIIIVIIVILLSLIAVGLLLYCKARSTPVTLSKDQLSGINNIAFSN

Binder	Fold Difference (Control IC50), against palivizumab [fold]	Fold Difference (Curve IC50), against palivizumab [fold]
A17d4(1) monoclonal antibody (antibody, V domains shown) VH: QVTLRESGPALVKPTQTLTLTCTFSGFSLSTAGMSVGWIRQPPGKALEWLADIWWDGKKSYNPSLKDRLTISKDTSKNQVVLKVTNMDPADTATYYCARDMIFNFYFDVWGQGTTVTVSS VL: DIQMTQSPSTLSASVGDRVTITCLPSSRVGYMHWYQQKPGKAPKLLIYDTMYQSSGVPSRFSGSGSGTEFTLTISSLQPDDFATYYCFQGSGYPFTFGGGTKVEIK	15	13
P12f4 Fab fragment (Fab, V domains shown) VH: QVTLRESGPALVKPTQTLTLTCTFSGFSLSTPGMSVGWIRQPPGKALEWLADIWWDGKKHYNPSLKDRLTISKDTSKNQVVLKVTNMDPADTATYYCARDMIFNFYFDVWGQGTTVTVSS VL: DIQMTQSPSTLSASVGDRVTITCSLSSRVGYMHWYQQKPGKAPKLLIYDTRGLPSGVPSRFSGSGSGTEFTLTISSLQPDDFATYYCFQGSGYPFTFGGGTKVEIK	15	10
P11d4 monoclonal antibody (antibody, V domains shown) VH: QVTLRESGPALVKPTQTLTLTCTFSGFSLSTPGMSVGWIRQPPGKALEWLADIWWDGKKHYNPSLKDRLTISKDTSKNQVVLKVTNMDPADTATYYCARDMIFNWYFDVWGQGTTVTVSS VL: DIQMTQSPSTLSASVGDRVTITCSPSSRVGYMHWYQQKPGKAPKLLIYDTMRLASGVPSRFSGSGSGTEFTLTISSLQPDDFATYYCFQGSGYPFTFGGGTKVEIK	19	21
A12a6 monoclonal antibody (antibody, V domains shown) VH: QVTLRESGPALVKPTQTLTLTCTFSGFSLSTAGMSVGWIRQPPGKALEWLADIWWDGKKDYNPSLKDRLTISKDTSKNQVVLKVTNMDPADTATYYCARDMIFNFYFDVWGQGTTVTVSS VL: DIQMTQSPSTLSASVGDRVTITCSASSRVGYMHWYQQKPGKAPKLLIYDTFKLSSGVPSRFSGSGSGTEFTLTISSLQPDDFATYYCFQGSGYPFTFGGGTKVEIK	15	13
P12f2 monoclonal antibody (antibody, V domains shown) VH: QVTLRESGPALVKPTQTLTLTCTFSGFSLSTPGMSVGWIRQPPGKALEWLADIWWDDKKHYNPSLKDRLTISKDTSKNQVVLKVTNMDPADTATYYCARDMIFNFYFDVWGQGTTVTVSS VL: DIQMTQSPSTLSASVGDRVTITCSLSSRVGYMHWYQQKPGKAPKLLIYDTFYLSSGVPSRFSGSGSGTEFTLTISSLQPDDFATYYCFQGSGYPFTFGGGTKVEIK	24	20
P12f2 Fab fragment (Fab, V domains shown) VH: QVTLRESGPALVKPTQTLTLTCTFSGFSLSTPGMSVGWIRQPPGKALEWLADIWWDDKKHYNPSLKDRLTISKDTSKNQVVLKVTNMDPADTATYYCARDMIFNFYFDVWGQGTTVTVSS VL: DIQMTQSPSTLSASVGDRVTITCSLSSRVGYMHWYQQKPGKAPKLLIYDTFYLSSGVPSRFSGSGSGTEFTLTISSLQPDDFATYYCFQGSGYPFTFGGGTKVEIK	16	11
A13c4 Fab fragment (Fab, V domains shown) VH: QVTLRESGPALVKPTQTLTLTCTFSGFSLSTAGMSVGWIRQPPGKALEWLADIWWDGKKSYNPSLKDRLTISKDTSKNQVVLKVTNMDPADTATYYCARDMIFNFYFDVWGQGTTVTVSS VL: DIQMTQSPSTLSASVGDRVTITCSLSSRVGYMHWYQQKPGKAPKLLIYDTMYQSSGVPSRFSGSGSGTEFTLTISSLQPDDFATYYCFQGSGYPFTFGGGTKVEIK	21	17
P12f4 monoclonal antibody (antibody, V domains shown) VH: QVTLRESGPALVKPTQTLTLTCTFSGFSLSTPGMSVGWIRQPPGKALEWLADIWWDGKKHYNPSLKDRLTISKDTSKNQVVLKVTNMDPADTATYYCARDMIFNFYFDVWGQGTTVTVSS VL: DIQMTQSPSTLSASVGDRVTITCSLSSRVGYMHWYQQKPGKAPKLLIYDTRGLPSGVPSRFSGSGSGTEFTLTISSLQPDDFATYYCFQGSGYPFTFGGGTKVEIK	23	19
A8c7 Fab fragment (Fab, V domains shown) VH: QVTLRESGPALVKPTQTLTLTCTFSGFSLSTAGMSVGWIRQPPGKALEWLADIWWDDKKSYNPSLKDRLTISKDTSKNQVVLKVTNMDPADTATYYCARDMIFNWYFDVWGQGTTVTVSS VL: DIQMTQSPSTLSASVGDRVTITCSPSSRVGYMHWYQQKPGKAPKLLIYDTRYQSSGVPSRFSGSGSGTEFTLTISSLQPDDFATYYCFQGSGYPFTFGGGTKVEIK	34	3
A4B4 monoclonal antibody (antibody, V domains shown) VH: QVTLRESGPALVKPTQTLTLTCTFSGFSLSTAGMSVGWIRQPPGKALEWLADIWWDDKKHYNPSLKDRLTISKDTSKNQVVLKVTNMDPADTATYYCARDMIFNFYFDVWGQGTTVTVSS VL: DIQMTQSPSTLSASVGDRVTITCSASSRVGYMHWYQQKPGKAPKLLIYDTFFLDSGVPSRFSGSGSGTEFTLTISSLQPDDFATYYCFQGSGYPFTFGGGTKVEIK	35	27
A1e9 Fab fragment (Fab, V domains shown) VH: QVTLRESGPALVKPTQTLTLTCTFSGFSLSTAGMSVGWIRQPPGKALEWLADIWWDGKKHYNPSLKDRLTISKDTSKNQVVLKVTNMDPADTATYYCARDMIFNWYFDVWGQGTTVTVSS VL: DIQMTQSPSTLSASVGDRVTITCSLSSRVGYMHWYQQKPGKAPKLLIYDTFKLSSGVPSRFSGSGSGTEFTLTISSLQPDDFATYYCFQGSGYPFTFGGGTKVEIK	4	3
A4B4 Fab fragment (Fab, V domains shown) VH: QVTLRESGPALVKPTQTLTLTCTFSGFSLSTAGMSVGWIRQPPGKALEWLADIWWDDKKHYNPSLKDRLTISKDTSKNQVVLKVTNMDPADTATYYCARDMIFNFYFDVWGQGTTVTVSS VL: DIQMTQSPSTLSASVGDRVTITCSASSRVGYMHWYQQKPGKAPKLLIYDTFFLDSGVPSRFSGSGSGTEFTLTISSLQPDDFATYYCFQGSGYPFTFGGGTKVEIK	13	11
A13a11 Fab fragment (Fab, V domains shown) VH: QVTLRESGPALVKPTQTLTLTCTFSGFSLSTAGMSVGWIRQPPGKALEWLADIWWDDKKHYNPSLKDRLTISKDTSKNQVVLKVTNMDPADTATYYCARDMIFNWYFDVWGQGTTVTVSS VL: DIQMTQSPSTLSASVGDRVTITCSPSSRVGYMHWYQQKPGKAPKLLIYDTYRHSSGVPSRFSGSGSGTEFTLTISSLQPDDFATYYCFQGSGYPFTFGGGTKVEIK	5	4
A1h5 Fab fragment (Fab, V domains shown) VH: QVTLRESGPALVKPTQTLTLTCTFSGFSLSTAGMSVGWIRQPPGKALEWLADIWWDGKKHYNPSLKDRLTISKDTSKNQVVLKVTNMDPADTATYYCARDMIFNWYFDVWGQGTTVTVSS VL: DIQMTQSPSTLSASVGDRVTITCSLSSSVGYMHWYQQKPGKAPKLLIYDTFFHRSGVPSRFSGSGSGTEFTLTISSLQPDDFATYYCFQGSGYPFTFGGGTKVEIK	3	2
A17d4(1) Fab fragment (Fab, V domains shown) VH: QVTLRESGPALVKPTQTLTLTCTFSGFSLSTAGMSVGWIRQPPGKALEWLADIWWDGKKSYNPSLKDRLTISKDTSKNQVVLKVTNMDPADTATYYCARDMIFNFYFDVWGQGTTVTVSS VL: DIQMTQSPSTLSASVGDRVTITCLPSSRVGYMHWYQQKPGKAPKLLIYDTMYQSSGVPSRFSGSGSGTEFTLTISSLQPDDFATYYCFQGSGYPFTFGGGTKVEIK	31	25
A12a6 Fab fragment (Fab, V domains shown) VH: QVTLRESGPALVKPTQTLTLTCTFSGFSLSTAGMSVGWIRQPPGKALEWLADIWWDGKKDYNPSLKDRLTISKDTSKNQVVLKVTNMDPADTATYYCARDMIFNFYFDVWGQGTTVTVSS VL: DIQMTQSPSTLSASVGDRVTITCSASSRVGYMHWYQQKPGKAPKLLIYDTFKLSSGVPSRFSGSGSGTEFTLTISSLQPDDFATYYCFQGSGYPFTFGGGTKVEIK	17	16
A8c7 monoclonal antibody (antibody, V domains shown) VH: QVTLRESGPALVKPTQTLTLTCTFSGFSLSTAGMSVGWIRQPPGKALEWLADIWWDDKKSYNPSLKDRLTISKDTSKNQVVLKVTNMDPADTATYYCARDMIFNWYFDVWGQGTTVTVSS VL: DIQMTQSPSTLSASVGDRVTITCSPSSRVGYMHWYQQKPGKAPKLLIYDTRYQSSGVPSRFSGSGSGTEFTLTISSLQPDDFATYYCFQGSGYPFTFGGGTKVEIK	14	13
A1e9 monoclonal antibody (antibody, V domains shown) VH: QVTLRESGPALVKPTQTLTLTCTFSGFSLSTAGMSVGWIRQPPGKALEWLADIWWDGKKHYNPSLKDRLTISKDTSKNQVVLKVTNMDPADTATYYCARDMIFNWYFDVWGQGTTVTVSS VL: DIQMTQSPSTLSASVGDRVTITCSLSSRVGYMHWYQQKPGKAPKLLIYDTFKLSSGVPSRFSGSGSGTEFTLTISSLQPDDFATYYCFQGSGYPFTFGGGTKVEIK	8	7
A13c4 monoclonal antibody (antibody, V domains shown) VH: QVTLRESGPALVKPTQTLTLTCTFSGFSLSTAGMSVGWIRQPPGKALEWLADIWWDGKKSYNPSLKDRLTISKDTSKNQVVLKVTNMDPADTATYYCARDMIFNFYFDVWGQGTTVTVSS VL: DIQMTQSPSTLSASVGDRVTITCSLSSRVGYMHWYQQKPGKAPKLLIYDTMYQSSGVPSRFSGSGSGTEFTLTISSLQPDDFATYYCFQGSGYPFTFGGGTKVEIK	14	12
